Test results: patent US20220380791A1 (ELEVA, published 2022)

Molecular target: M6P receptor (M6PR) (human)
Assay: cell-based or functional assay

B1: Agalsidase alfa (Shire, Replagal) (enzyme, UniProt P06280 32-429, looked up)
chain: LDNGLARTPTMGWLHWERFMCNLDCQEEPDSCISEKLFMEMAELMVSEGWKDAGYEYLCIDDCWMAPQRDSEGRLQADPQRFPHGIRQLANYVHSKGLKLGIYADVGNKTCAGFPGSFGYYDIDAQTFADWGVDLLKFDGCYCDSLENLADGYKHMSLALNRTGRSIVYSCEWPLYMWPFQKPNYTEIRQYCNHWRNFADIDDSWKSIKSILDWTSFNQERIVDVAGPGGWNDPDMLVIGNFGLSWNQQVTQMALWAIMAAPLFMSNDLRHISPQAKALLQDKDVIAINQDPLGKQGYQLRQGDNFEVWERPLSGLAWAVAMINRQEIGGPRSYTIAVASLGKGVACNPACFITQLLPVKRKLGFYEWTSRLRSHINPTGTVLLQLENTMQMSLKDLL
modifications: heterogeneous N-glycans, about 24% phosphorylated (M6P) glycans
In the case of B1, the “intracellular α-gal A activity of Fabry patient fibroblasts after 18 hours incubation with 10 µg/ml enzyme (fold of untreated cells)” value is reported as 116 fold.
